± gives the standard error. Fewer inactive variants are shown than the library holds.
B1: glmS ribozyme (parent)
chain: AUAAAAGCGCCAGAACUACAGAAAUGUAGUUGACGAGGAGGAGGUUUAUCGAAUUUUCGGCGGAUGCCUCCAAA

Legend:
Details in all cases: with glucosamine-6-phosphate
glucosamine-6-phosphate [1] = variants of: B1; experiment: self-cleavage kobs at 160 uM GlcN6P; higher = faster cleavage; RNA array
Procedure, shortened: (§1)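 E. coli RNA polymerase transcribed barcoded ribozyme variants in situ on sequenced MiSeq chips, which were tracked via a hybridised Cy3 probe at 37 °C. Tiles were imaged over ~14 h after glucosamine-6-phosphate (40 μM to 10 mM) in HEPES/KCl/Mg(OAc)2 buffer was flowed in. Normalised per-tile medians were fit to one- or two-exponential decays for kobs, and kcat and KM came from weighted Michaelis–Menten fits.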

glucosamine-6-phosphate [2] = variants of: B1; experiment: self-cleavage kobs at 640 uM GlcN6P; higher = faster cleavage; RNA array
Procedure, shortened: as §1

glucosamine-6-phosphate [3] = variants of: B1; experiment: self-cleavage kobs at 2500 uM GlcN6P; higher = faster cleavage; RNA array
Procedure, shortened: as §1

glucosamine-6-phosphate [4] = variants of: B1; experiment: self-cleavage kobs at 10000 uM GlcN6P; higher = faster cleavage; RNA array
Procedure, shortened: as §1

Variant	self-cleavage kobs at 160 uM GlcN6P (glucosamine-6-phosphate [1]) [s⁻¹]	self-cleavage kobs at 640 uM GlcN6P (glucosamine-6-phosphate [2]) [s⁻¹]	self-cleavage kobs at 2500 uM GlcN6P (glucosamine-6-phosphate [3]) [s⁻¹]	self-cleavage kobs at 10000 uM GlcN6P (glucosamine-6-phosphate [4]) [s⁻¹]
AUAAAGGCGCCAGAACUACAGAAAUGUAGUUGACGAGGAGGAUGUUUAUCGAAUUUUCGGCGGACGCCUCCAAA [A6G G43U U65C]	< 1e-05	< 1e-05	< 1e-05	
AUAAAAGCGCCUGAACUACAGAAAUGUAGUUGACGAGGAGCAGGUUUAUCGUAUUUUCAUCGGAUGCCUCCAAA [A12U G41C A52U G59A G60U]	< 1e-05		< 1e-05	
AUAAAAGCGCCAUAACUACAGAAAUGUAGUUGACGAGGAGUAGGUUUAUCGAAUUUUCGGGGGAUGCCUCGAAA [G13U G41U C61G C71G]	< 1e-05	< 1e-05	< 1e-05	
AUAAAAGCGCCAGAACUACAGAAAUGUAGUUGACGAGGACGAGGUUUAUCGAAUUAUCGGCGGAUGCCUCCAAA [G40C U56A]	0.000154 ± 3.3e-05	0.000308 ± 6.3e-05	0.00115 ± 0.00026	
AUAAAAGCUCCAGAACUACAGAAAUGUAGUAGACGAGGAGGAGGUUUAUCGAAUUUUCGGCGGAGGCCUCCAAA [G9U U31A U65G]	< 1e-05	< 1e-05	< 1e-05	
AUAAAAGCGCCAGAACUACAGAAAUGUAGUUGAUGAGGAGGAGGUUUAUCGAAUUUUCGGGGGAUGCCUCCAAA [C34U C61G]	< 1e-05	< 1e-05		< 1e-05
AUAAAAGCGCCAGAACUACAGAAAUGUAGUUGACGAGGAGGAGGCUUAUGAAUUUUUCGCCGGAUGCCUCCAAA [U45C C50G G51A A53U G60C]	< 1e-05	< 1e-05	< 1e-05	
AUAAAAGCGCCAGAACUACAGAAAUGUAGCUGACGAGGAGGAGGUUUAUCGAAUUCUCGGCGGUUGCCUCCAAA [U30C U56C A64U]	< 1e-05	< 1e-05		
AUAAAAGCGCGAGAACUACAGAAAUGUAGUUGACAAGGAGGAGGUUUAUCGAAUUUUGGGCGGAUGCCUCCAAA [C11G G35A C58G]	< 1e-05	< 1e-05	< 1e-05	
AUAAAAGCGCCAGAUCUACAGAAAUGUAGUUGACGAGGAUGAGGUUUCUCGAAUUUUCGGCGGAUGCCUCCAAA [A15U G40U A48C]	< 1e-05	< 1e-05		
AUAAAAGCGCCAGAACUACAGAAAUGUAGUUGACGAGGAGGAGGUUUCUCGAAUUUUCGAAGGAUGCCUCCAAA [A48C G60A C61A]	< 1e-05			
AUAAAAGCGCCAGAACUACAGAAAUGUAGUUGACGGGGAGGAGGUUUAUCGAAUUUUAGACGGAUGCCUCCAAA [A36G C58A G60A]	< 1e-05	< 1e-05		< 1e-05
AUAAAAACGCCAGAACUACAGAAAUGUAGUUGACGAGGAGGAGGUUUAUAAAAUUUUCGGCGGAUGCCUCCAAA [G7A C50A G51A]	< 1e-05	< 1e-05	< 1e-05	
AUAAAAGCGGCAGAACUACAGAAAUGUAGUUCACGAGGAGGAGGUUUAUCGUAUUUUCGGCGGAUGCCUCCAAA [C10G G32C A52U]	< 1e-05	< 1e-05	< 1e-05	
AUAAAAGUGCCAGAACUACAGAAAUGUAGUUGACGAGGAGGAGGUUUACCGAAUUUUCGGCGGAUGCCUCCAAA [C8U U49C]	< 1e-05	< 1e-05	< 1e-05	< 1e-05
AUAAAAGCGCCAGAACUACAGAAAUGUAGUUGACGAGUAGGAGGUUUAUCGUAUUUUCGGCGGAUGCCUCCAAA [G38U A52U]	< 1e-05	< 1e-05		< 1e-05
AUAAAAGCGCCAGAACUACAGAAAUGUAGUUGACGAGGACGAGGUUUUUCGAAUUUUCGGUGGAUGCCUCCAAA [G40C A48U C61U]	< 1e-05	< 1e-05		
AUAAAAGCGCCAGAGCUACAGAAAUGUAGUUGACGAGGAGGAGGUUGAUCGAAUUUUCGGCGGAUGCGUCCAAA [A15G U47G C68G]	0.000236 ± 8.5e-05		3e-05 ± 1.3e-05	
AUAAAAGCGCCAGAACUACAGAAAUGUAGUUGACGAGGAGGAGGUUUAUGGAUUUUUCGGCGGAUGCCUCCAAA [C50G A53U]	0.00155 ± 0.00063			
AUAAAAGCACCAGAACUACAGAAAUGUAGUUGACGAGGAGGAGGUUUAUCGAAUUUUCGGGGGAUGCCUCCAAA [G9A C61G]	< 1e-05	< 1e-05		
AUAAAAGCGCCAGAACUACAGAAAUGUAGUUGACGAGGAGAAGGUUUAUCGAAUUUUCGGCGGAUGACUCCAAA [G41A C67A]	< 1e-05			4.21e-05 ± 8.7e-06
AUAAAAGCGCCAGCACUACAGAAAUGUAGGUGACGAGGAGCAGGUUUAUCGAGUUUUCGGCGGAUGCCUCCAAA [A14C U30G G41C A53G]	< 1e-05		< 1e-05	
AUAAACGCGCCAGAACUACAGAAAUGUAGUUGACGGGGAGGAGGUUGAUCGAAUUUUCGGCGGAUGCCUCCAAA [A6C A36G U47G]	< 1e-05	< 1e-05		
AUAAAAGCGCCAGAACUACAGAAAUGUAGUUGAAGAGGAGGAGGUUUAUCGAAUAUUCGGCGGAUGCCUCCAAA [C34A U55A]	< 1e-05	< 1e-05	< 1e-05	
AUAAAAGCGCCAGAAUUACAGAAAUGUACUUGACGAGGAGGAGGUUUAUCGAAUUUUCGGCGGAUGACUCCAAA [C16U G29C C67A]	0.00011 ± 2.1e-05	0.000258 ± 4.5e-05	0.00106 ± 0.00017	
AUAAAAGCGGCAGAACUACAGAAAUGUAGUUGACGAGGAGGAGGUUUAUCGAAUUUUCGGCGCAGGCCUCCAAA [C10G G63C U65G]	< 1e-05		< 1e-05	
AUAAAAGCGCCGGAACUACAGAAAUGUAGUUGACGAGGAGGUGGUUUAUCGAAUUUUCUGCGCAUGCCUCUAAA [A12G A42U G59U G63C C71U]	< 1e-05	< 1e-05		
AUAAAAGCUCCAGAACUACAGAAAUGUAGUUGACGAGGAAGAGGUUUAUCGUAUUUUCGGCGGAUGCCUCCAAA [G9U G40A A52U]	< 1e-05		< 1e-05	
AUAAAAGGGCCAGAACUACAGAAAUGUAGUUGACGAGGAGGAGGUUUAUCGAAUUUUCGGCGGAUGCCUUCAAA [C8G C70U]	< 1e-05	< 1e-05	< 1e-05	< 1e-05
AUAAAAGCGCCAGAACUACAGAAAUGUAGUUGCCGAGGAGGAGGUUUAUCGAAUUUUCGGCGGAUGCCUACAAA [A33C C70A]	< 1e-05	< 1e-05		< 1e-05
